Data as given in IntAct's records for PubMed 31169361.

B1: Astrotactin-1 (Homo sapiens), O14525-2 (parent)
chain: MALAGLCALLACCWGPAAVLATAAGDVDPSKELECKLKSITVSALPFLRENDLSIMHSPSASEPKLLFSVRNDFPGEMVVVDDLENTELPYFVLEISGNTEDIPLVRWRQQWLENGTLLFHIHHQDGAPSLPGQDPTEEPQHESAEEELRILHISVMGGMIALLLSILCLVMILYTRRRWCKRRRVPQPQKSASAEAANEIHYIPSVLIGGHGRESLRNARVQGHNSSGTLSIRETPILDGYEYDITDLRHHLQRECMNGGEDFASQVTRTLDSLQGCNEKSGMDLTPGSDNAKLSLMNKYKDNIIATSPVDSNHQQATLLSHTSSSQRKRINNKARAGSAFLNPEGDSGTEAENDPQLTFYTDPSRSRRRSRVGSPRSPVNKTTLTLISITSCVIGLVCSSHVNCPLVVKITLHVPEHLIADGSRFILLEGSQLDASDWLNPAQVVLFSQQNSSGPWAMDLCARRLLDPCEHQCDPETGECLCYEGYMKDPVHKHLCIRNEWGTNQGPWPYTIFQRGFDLVLGEQPSDKIFRFTYTLGEGMWLPLSKSFVIPPAELAINPSAKCKTDMTVMEDAVEVREELMTSSSFDSLEVLLDSFGPVRDCSKDNGGCSKNFRCISDRKLDSTGCVCPSGLSPMKDSSGCYDRHIGVDCSDGFNGGCEQLCLQQMAPFPDDPTLYNILMFCGCIEDYKLGVDGRSCQLITETCPEGSDCGESRELPMNQTLFGEMFFGYNNHSKEVAAGQVLKGTFRQNNFARGLDQQLPDGLVVATVPLENQCLEEISEPTPDPDFLTGMVNFSEVSGYPVLQHWKVRSVMYHIKLNQVAISQALSNALHSLDGATSRADFVALLDQFGNHYIQEAIYGFEESCSIWYPNKQVQRRLWLEYEDISKGNSPSDESEERERDPKVLTFPEYITSLSDSGTKHMAAGVRMECHSKGRCPSSCPLCHVTSSPDTPAEPVLLEVTKAAPIYELVTNNQTQRLLQEATMSSLWCSGTGDVIEDWCRCDSTAFGADGLPTCAPLPQPVLRLSTVHEPSSTLVVLEWEHSEPPIGVQIVDYLLRQEKVTDRMDHSKVETETVLSFVDDIISGAKSPCAMPSQVPDKQLTTISLIIRCLEPDTIYMFTLWGVDNTGRRSRPSDVIVKTPCPVVDDVKAQEIADKIYNLFNGYTSGKEQQTAYNTLLDLGSPTLHRVLYHYNQHYESFGEFTWRCEDELGPRKAGLILSQLGDLSSWCNGLLQEPKISLRRSSLKYLGCRYSEIKPYGLDWAELSRDLRKTCEEQTLSIPYNDYGDSKEI
B2: Nuclear factor erythroid 2-related factor 2 (Mus musculus), Q60795 (parent)
chain: MMDLELPPPGLQSQQDMDLIDILWRQDIDLGVSREVFDFSQRQKDYELEKQKKLEKERQEQLQKEQEKAFFAQFQLDEETGEFLPIQPAQHIQTDTSGSASYSQVAHIPKQDALYFEDCMQLLAETFPFVDDHESLALDIPSHAESSVFTAPHQAQSLNSSLEAAMTDLSSIEQDMEQVWQELFSIPELQCLNTENKQLADTTAVPSPEATLTEMDSNYHFYSSISSLEKEVGNCGPHFLHGFEDSFSSILSTDDASQLTSLDSNPTLNTDFGDEFYSAFIAEPSDGGSMPSSAAISQSLSELLDGTIEGCDLSLCKAFNPKHAEGTMEFNDSDSGISLNTSPSRASPEHSVESSIYGDPPPGFSDSEMEELDSAPGSVKQNGPKAQPAHSPGDTVQPLSPAQGHSAPMRESQCENTTKKEVPVSPGHQKAPFTKDKHSSRLEAHLTRDELRAKALHIPFPVEKIINLPVDDFNEMMSKEQFNEAQLALIRDIRRRGKNKVAAQNCRKRKLENIVELEQDLGHLKDEREKLLREKGENDRNLHLLKRRLSTLYLEVFSMLRDEDGKPYSPSEYSLQQTRDGNVFLVPKSKKPDTKKN
B3: Astrotactin-1 (Mus musculus), Q61137-2 (parent)
chain: MALAGLCALFACCWGPAAVLATAAGDVDPSKELECKLKSITVSALPFLRENDLSIMHSPSASEPKLLFSVRNDFPGEMVVVDDLENTELPYFVLEISGNTEDIPLVRWRQQWLENGTLLFHIHHQDGAPSLPGQDPTEEPQHESAEEELRILHISVMGGMIALLLSILCLVMILYTRRRWCKRRRVPQPQKSASAEAANEIHYIPSVLIGGHGRESLRNARVQGHNSSGTLSIRETPILDGYEYDITDLRHHLQRECMNGGEDFASQVTRTLDSLQGCNEKSGMDLTPGSDNAKLSLMNKYKDNIIATSPVDSNHQQATLLSHTSSSQRKRINNKARAGSAFLNPEGDSSTEAENDPQLTFYTDPSRSRRRSRVGSPRSPVNKTTLTLISVTSCVIGLVCSSHVSCPLVVKITLHVPEHLIADGSRFILLEGSQLDASDWLNPAQVVLFSQQNSSGPWAMDLCARRLLDPCEHQCDPETGECLCYEGYMKDPVHKHLCIRNEWGTNQGPWPYTIFQRGFDLVLGEQPSDKIFRFTYTLGEGMWLPLSKSFVIPPAELAINPSAKCKTDMTVMEDAVEVREELMTSSSFDSLEVLLDSFGPVRDCSKDNGGCSKNFRCISDRKLDSTGCVCPSGLSPMKDSSGCYDRHIGVDCSDGFNGGCEQLCLQQMAPFPEDPTLYNILMFCGCIEDYKLGVDGRSCQLVTETCPEGGDCGESREVPMNQTLFGEMFFGYNNQSKEVATGQVLKGTFRQNNFARGLDQQLPDGLVVASVPLENQCLEEISEPTPDPDFLTGMVNFSEVSGYPVLQHWKVRSVMYHIKLNQAAISQAFSNALHSLDGATSRADFVALLDQFGNHYIQEAVYGFEESCSIWYPNKQVQRRLWLEYEDISKGNSPSDESEERERDPKVLTFPEYIASLSDSGTKRMAAGVRMECQSKGRCPSSCPLCHVTSSPETPAEPVLLEVTRASPIYELVTNNQTQRLLQEATMSSLWCSGTGDVIEDWCRCDSTAFGADGLPTCAPLPQPVLRLSTVHEPSSNLVVLEWEHSEPPIGVQIVDYLIRQEKVTDRMDHSKVETETVLSFVDDIISGAKAPCAMPSQVPDKQLTTISLIIRCLEPDTIYMFTLWGVDNTGRRSRPSDVIVKTPCPVVDDVKAQEIADKIYNLFNGYTSGKEQQTAYNTLLDLGSPTLHRVLYHYNQHYESFGEFTWRCEDELGPRKAGLILSQLGDLSSWCNGLLQEPKISLRRGSLKYLGCRYSEIKPYGLDWSELSRDLRKTCEEQTLSVPYNDYGDSKDI

Variants of: B1
Conditions: with keap1_human KEAP1, Q14145
Sequence of keap1_human KEAP1, Q14145 (Q14145 whole entry): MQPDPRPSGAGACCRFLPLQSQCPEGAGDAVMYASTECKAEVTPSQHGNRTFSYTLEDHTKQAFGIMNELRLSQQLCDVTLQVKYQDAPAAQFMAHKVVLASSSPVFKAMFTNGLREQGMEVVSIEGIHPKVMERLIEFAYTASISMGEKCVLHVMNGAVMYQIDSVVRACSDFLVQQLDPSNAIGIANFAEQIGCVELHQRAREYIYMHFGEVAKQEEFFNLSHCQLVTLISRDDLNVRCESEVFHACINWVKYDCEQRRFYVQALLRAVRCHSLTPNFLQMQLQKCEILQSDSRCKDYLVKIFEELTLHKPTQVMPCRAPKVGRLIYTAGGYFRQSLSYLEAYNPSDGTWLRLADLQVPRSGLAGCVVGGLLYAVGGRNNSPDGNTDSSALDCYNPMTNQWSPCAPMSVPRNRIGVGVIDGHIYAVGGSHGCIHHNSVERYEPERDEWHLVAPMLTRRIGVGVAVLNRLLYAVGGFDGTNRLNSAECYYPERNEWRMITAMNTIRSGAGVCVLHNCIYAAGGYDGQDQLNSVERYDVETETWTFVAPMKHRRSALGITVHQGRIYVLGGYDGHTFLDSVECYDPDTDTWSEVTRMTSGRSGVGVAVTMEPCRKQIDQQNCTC
For C475L, the “effect of a mutation on the interaction” value was “with no effect”. In the case of C475S, the “effect of a mutation on the interaction” value is reported as “decreasing interaction strength”. C482S was tested, and the “effect of a mutation on the interaction” value was “with no effect”. C475S;C484S was tested, and the “effect of a mutation on the interaction” value was “decreasing interaction strength”. For D476A;E478A, the “effect of a mutation on the interaction” value was “disrupting interaction strength”. In the case of C484S, the “effect of a mutation on the interaction” value is reported as “with no effect”. C475S;C482S was tested, and the “effect of a mutation on the interaction” value was “with no effect”. With C482S;C484S the “effect of a mutation on the interaction” value was “increasing interaction strength”.

Variants of: B1
Conditions: with keap1_human KEAP1, Q14145
Remark: another data set of the same source
With D476A;E478A the “effect of a mutation on the interaction” value was “decreasing interaction strength”.

Variants of: B2
Conditions: with keap1_mouse Keap1, Q9Z2X8
Target sequence in this assay (Q9Z2X8 whole entry): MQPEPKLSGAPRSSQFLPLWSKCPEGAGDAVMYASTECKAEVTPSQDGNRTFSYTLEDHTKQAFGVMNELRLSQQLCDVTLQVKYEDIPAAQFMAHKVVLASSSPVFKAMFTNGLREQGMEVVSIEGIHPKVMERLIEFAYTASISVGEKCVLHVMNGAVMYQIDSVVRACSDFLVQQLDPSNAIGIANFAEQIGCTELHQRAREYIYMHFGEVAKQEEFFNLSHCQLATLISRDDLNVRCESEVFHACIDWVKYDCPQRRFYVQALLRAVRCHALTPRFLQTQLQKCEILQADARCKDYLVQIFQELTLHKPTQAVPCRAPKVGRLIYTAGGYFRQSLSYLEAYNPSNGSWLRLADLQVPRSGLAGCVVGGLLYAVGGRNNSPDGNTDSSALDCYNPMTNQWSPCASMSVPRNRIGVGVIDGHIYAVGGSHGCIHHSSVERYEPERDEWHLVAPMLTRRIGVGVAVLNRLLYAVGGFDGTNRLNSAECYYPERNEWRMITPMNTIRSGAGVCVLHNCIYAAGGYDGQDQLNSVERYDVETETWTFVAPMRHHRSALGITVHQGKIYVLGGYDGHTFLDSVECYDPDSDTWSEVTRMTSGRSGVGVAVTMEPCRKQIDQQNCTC
D77A;E79A was tested, and the “effect of a mutation on the interaction” value was “disrupting interaction strength”.

Variants of: B3
Conditions: with keap1_mouse Keap1, Q9Z2X8
Target sequence in this assay (Q9Z2X8 whole entry): as above
For D476A;E478A, the “effect of a mutation on the interaction” value was “with no effect”.
